The experiment addresses Ptc-1. The experiment can be described thus: Ptc-1 binding assay, format not described.

Take “Shh C1II/A169C, 5 K PEG (from UniProt Q15465 25-197) (ligand)”: the Ptc binding came to 1 nM.
“Shh C1II/A169C, NEM-modified (from UniProt Q15465 25-197) (ligand)” had a Ptc binding of 0.4 nM.
In the case of “Shh C1II/A169C, unmodified (from UniProt Q15465 25-197) (ligand)” it was 1.1 nM; in that of “mutant 17 (Shh C1II/A169C + N27C), 5 K PEG (from UniProt Q15465 25-197) (ligand)”, 32 nM; in that of “mutant 17 (Shh C1II/A169C + N27C), NEM-modified (from UniProt Q15465 25-197) (ligand)”, 0.3 nM.
In the case of “mutant 17 (Shh C1II/A169C + N27C), unmodified (from UniProt Q15465 25-197) (ligand)” it was 1.3 nM; in that of “mutant 18 (Shh C1II/A169C + N46C), 5 K PEG (from UniProt Q15465 25-197) (ligand)”, 2 nM.
In the case of “mutant 18 (Shh C1II/A169C + N46C), NEM-modified (from UniProt Q15465 25-197) (ligand)” it was 2 nM.
As to “mutant 19 (Shh C1II/A169C + Y57C), 5 K PEG (from UniProt Q15465 25-197) (ligand)”, the Ptc binding was found to be 3 nM.
In the case of “mutant 19 (Shh C1II/A169C + Y57C), NEM-modified (from UniProt Q15465 25-197) (ligand)” it was 1 nM.
The same measure for “mutant 20 (Shh C1II/A169C + N68C), 5 K PEG (from UniProt Q15465 25-197) (ligand)”: 3 nM; for “mutant 20 (Shh C1II/A169C + N68C), NEM-modified (from UniProt Q15465 25-197) (ligand)”: 2 nM.
Turning to “mutant 20 (Shh C1II/A169C + N68C), unmodified (from UniProt Q15465 25-197) (ligand)”, the Ptc binding worked out at 3 nM.
For “mutant 21 (Shh C1II/A169C + N92C), 5 K PEG (from UniProt Q15465 25-197) (ligand)”, the Ptc binding was 35 nM.
The same measure for “mutant 21 (Shh C1II/A169C + N92C), NEM-modified (from UniProt Q15465 25-197) (ligand)”: 0.3 nM; for “mutant 22 (Shh C1II/A169C + S154C), 5 K PEG (from UniProt Q15465 25-197) (ligand)”: 85 nM; for “mutant 22 (Shh C1II/A169C + S154C), NEM-modified (from UniProt Q15465 25-197) (ligand)”: 8.3 nM.
In the case of “mutant 22 (Shh C1II/A169C + S154C), unmodified (from UniProt Q15465 25-197) (ligand)” it was 3.9 nM; in that of “mutant 24 (Shh C1II/A169C + S112C), 5 K PEG (from UniProt Q15465 25-197) (ligand)”, 8 nM.
“mutant 24 (Shh C1II/A169C + S112C), NEM-modified (from UniProt Q15465 25-197) (ligand)” came in with a Ptc binding of 0.6 nM.
The same measure for “mutant 25 (Shh C1II/A169C + S133C), 5 K PEG (from UniProt Q15465 25-197) (ligand)”: 33 nM.
In the case of “mutant 25 (Shh C1II/A169C + S133C), NEM-modified (from UniProt Q15465 25-197) (ligand)” it was 0.4 nM.
The same measure for “mutant 25 (Shh C1II/A169C + S133C), unmodified (from UniProt Q15465 25-197) (ligand)”: 3.7 nM; for “mutant 44 (Shh C1II/A169C + E113C), 5 K PEG (from UniProt Q15465 25-197) (ligand)”: 12 nM.
As for “mutant 44 (Shh C1II/A169C + E113C), NEM-modified (from UniProt Q15465 25-197) (ligand)”, the Ptc binding turned out to be 0.5 nM.
In the case of “mutant 44 (Shh C1II/A169C + E113C), unmodified (from UniProt Q15465 25-197) (ligand)”, the Ptc binding was 2.3 nM.
In the case of “wild type Shh, 5 K PEG (from UniProt Q15465 24-197) (ligand)” it was 42 nM; in that of “wild type Shh, NEM-modified (from UniProt Q15465 24-197) (ligand)”, 1.4 nM.
In the case of “wild type Shh, unmodified (from UniProt Q15465 24-197) (ligand)” it was 2.4 nM.

Values taken from patent US20040038876A1.
